According to article PMC9486808:
pKd: −log10 of the molar value. Where two headings read alike, the source gives them in different places.

Columns and labels:
Assay in all cases: fluorescence polarisation
[1] = target: L2-FAM: Cyclo(Ac-…)LFAApa[…]-NH2
[2] = target: S3-FAM: Cyclo(Ac-y…)pa[…]-NH2
[3] = target: L4-FAM: Cyclo(Ac-…)pa[…]-NH2
[4] = target: S5-FAM: Cyclo(Ac-y…)pa[…]-NH2
[5] = target: S3-FAM: Cyclo(Ac-y…)pa[…]-NH2; remark: listed apart in the source
[6] = target: L4-FAM: Cyclo(Ac-…)pa[…]-NH2; remark: listed apart in the source
[7] = target: S5-FAM: Cyclo(Ac-y…)pa[…]-NH2; remark: listed apart in the source

## Recombinant soluble trimeric H1 HA ectodomain of A/California/04/2009 (H1N1), fused to GCN4 trimeriz (domain or fragment)
[1]
  pKd: 8.62
[2]
  pKd: 8.89
[3]
  pKd: 8.96
[4]
  pKd: 9.00
[5]
  pKd: 9.10
[6]
  pKd: 9.22
[7]
  pKd: 9.22
